The target in one assay is 4A8 monoclonal antibody. Briefly: BLI.
In a further assay the target is CB6 monoclonal antibody. Briefly: BLI. In general terms: In BLI a coated tip is dipped into the sample, and binding shifts an interference pattern.

Experimental findings from paper PMC9278117 are described below.

“SARS-CoV-2 S1-SpyTag monomer (from UniProt P0DTC2 16-685) (domain or fragment)”: the Kd – broadly, the equilibrium constant for the complex coming apart – with 4A8 monoclonal antibody turned out to be 0.0341 µM; with CB6 monoclonal antibody, 0.00548 µM.
